Earlier results on one substance are cited in patent US8013186B2, “Haloalkyl containing compounds as cysteine protease inhibitors” (Virobay, Inc., priority 2004, dated 2011).

The conditions of this series: in clinical trials.

As to “OKT3: murine monoclonal antibody directed towards CD-3 domain of activated T-cells”, the “patients administered OKT3 who produce antibodies versus the therapy” value is listed as 20-40%.
